Patent US20240218069A1 (LYVGEN BIOPHARMA, published 2024)

T1: human B7H3 (human, UniProt Q5ZPR3 29-534)
T1 construct: whole, on cells; CHO cells over-expressing human B7H3 (CHO-B7H3); also called CD276; cellular B7H3
T1 sequence (looked up): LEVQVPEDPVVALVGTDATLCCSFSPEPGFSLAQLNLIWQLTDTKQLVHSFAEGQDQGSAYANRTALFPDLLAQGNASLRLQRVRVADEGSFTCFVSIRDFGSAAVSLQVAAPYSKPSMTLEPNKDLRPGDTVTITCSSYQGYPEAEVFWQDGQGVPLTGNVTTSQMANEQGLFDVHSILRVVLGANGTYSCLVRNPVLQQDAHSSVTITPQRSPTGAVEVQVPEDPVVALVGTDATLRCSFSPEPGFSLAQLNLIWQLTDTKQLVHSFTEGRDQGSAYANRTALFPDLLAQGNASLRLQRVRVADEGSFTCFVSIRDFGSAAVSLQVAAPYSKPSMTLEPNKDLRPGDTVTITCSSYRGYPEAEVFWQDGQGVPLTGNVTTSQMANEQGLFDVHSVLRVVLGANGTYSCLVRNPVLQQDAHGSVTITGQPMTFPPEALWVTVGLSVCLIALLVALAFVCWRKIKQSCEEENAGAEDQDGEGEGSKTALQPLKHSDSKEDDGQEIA


Columns and labels:
[1] = molecular target: T2, human CD40 (human, UniProt P25942 21-277); assay: FACS on CHO cells expressing human CD40 (FIGS. 2C and 2D)
T2 construct: whole, on cells; also called huCD40
T2 sequence (P25942 21-277): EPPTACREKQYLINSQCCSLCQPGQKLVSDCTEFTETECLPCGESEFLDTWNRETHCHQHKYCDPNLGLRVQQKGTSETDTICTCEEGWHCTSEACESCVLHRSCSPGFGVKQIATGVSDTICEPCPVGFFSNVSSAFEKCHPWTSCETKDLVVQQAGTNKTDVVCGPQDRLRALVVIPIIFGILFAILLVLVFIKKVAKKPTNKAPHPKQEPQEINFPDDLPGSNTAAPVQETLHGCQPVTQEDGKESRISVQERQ

[2] = molecular target: T2, human CD40; assay: FACS on CHO cells expressing human CD40 (FIG. 2C)
[3] = molecular target: T2, human CD40; assay: FACS on CHO cells expressing human CD40 (FIG. 2D)
[4] = molecular target: T1, human B7H3; assay: FACS on CHO cells over-expressing human B7H3
Procedure: FACS analysis was performed to evaluate the binding properties of exemplary anti-B7H3 humanized antibodies. Briefly, CHO cells over-expressing human B7H3 were harvested using trypsin-EDTA partial digestion followed by centrifugation at 1000 g for 3 minutes. The cells were re-suspended in cold PBS-BSA (2%) at 2×10⁶/mL and aliquoted to 100 μL/tube. The anti-B7H3 humanized antibodies were serially diluted in PBS-BSA and 50 μL of each was added to the CHO-B7H3 cells. The cell were mixed and incubated at 4° C. in the dark for 2 hours, then washed with PBS-BSA twice. Secondary antibody conjugates (goat F(ab′)₂ anti-human IgG-Fc (PE), pre-adsorbed, Abcam #ab98596) at 1/500 dilution, 100 μL/well, was used to resuspend the cells. The cells were incubated 4° C. in dark for another 1 hour and washed twice with PBS-BSA, followed by fixation in 2% PFA/PBS, and then subjected to FACS analysis.
Binding of the antibodies to human B7H3 expressing CHO cells were evaluated and the mean fluorescence intensity is plotted in histograms as shown in FIGS. 1A-1C. […] However, Ly1426 (CDR grafted, without back mutation) didn't bind to cellular B7H3.

Binder | binding result [2] | other results
Ly1581 (bispecific antibody, also called anti-B7H3/CD40 bi-specific antibody Ly1581) heavy: not shown light: EIVLTQSPATLSLSPGERATLSCRASSSVSYMHWYQQKPGQAPRPWIYATSNLASGIPARFSGSRSGTDYTLTISSLEPEDFAVYYCQQWSSNTLTFGGGTKVEIKRTVAAPSVFIFPPSDEQLKSGTASVVCLLNNFYPREAKVQWKVDNALQSGNSQESVTEQDSKDSTYSLSSTLTLSKADYEKHKVYACEVTHQGLSSPVTKSFNRGEC |  | binding result [1]: binds
Ly1660 (bispecific antibody, human IgG1, kappa, Four-chain heterodimer format; also called anti-B7H3/CD40 bi-specific antibody Ly1660) heavy: QVQLVQSGAEVKKPGASVKVSCKASGYTFTSYVMHWVRQKPGQGLEWIGYINPYNEGTESTDKFKGRATMTSDKSTSTVYMELSSLRSEDTAVYYCASIYYGYEGTYFGVWGQGTLVTVSSASTKGPSVFPLAPSSKSTSGGTAALGCLVKDYFPEPVTVSWNSGALTSGVHTFPAVLQSSGLYSLSSVVTVPSSSLGTQTYICNVNHKPSNTKVDKKVEPKSCDKTHTCPPCPAPELLGPSVFLFPPKPKDTLMISRTPEVTCVVVDVSHEDPEVKFNWYVDGVEVHNAKTKPREEQYNSTYRVVSVLTVLHQDWLNGKEYKCKVSNKALPAPIEKTISKAKGQPREPQVYTLPPCREEMTKNQVSLWCLVKGFYPSDIAVEWESNGQPENNYKTTPPVLDSDGSFFLYSKLTVDKSRWQQGNVFSCSVMHEALHNHYTQKSLSLSPGK chain 1: not shown light: EIVLTQSPATLSLSPGERATLSCRASSSVSYMHWYQQKPGQAPRPWIYATSNLASGIPARFSGSRSGTDYTLTISSLEPEDFAVYYCQQWSSNTLTFGGGTKVEIKRTVAAPSVFIFPPSDEQLKSGTASVVCLLNNFYPREAKVQWKVDNALQSGNSQESVTEQDSKDSTYSLSSTLTLSKADYEKHKVYACEVTHQGLSSPVTKSFNRGEC chain 2: DIQMTQSPSSVSASVGDRVTITCRASQGIYSWLAWYQQKPGKAPNLLIYTASTLQSGVPSRFSGSGSGTDFTLTISSLQPEDFATYYCQQANIFPLTFGGGTKVEIKSSASTKGPSVFPLAPSSKSTSGGTAALGCLVKDYFPEPVTVSWNSGALTSGVHTFPAVLQSSGLYSLSSVVTVPSSSLGTQTYICNVNHKPSNTKVDKKVEPKSC | binds | 
Ly1661 (bispecific antibody, human IgG1, kappa, Four-chain heterodimer format; also called anti-B7H3/CD40 bi-specific antibody Ly1661) heavy: QVQLVQSGAEVKKPGASVKVSCKASGYTFTSYVMHWVRQKPGQGLEWIGYINPYNEGTESTDKFKGRATMTSDKSTSTVYMELSSLRSEDTAVYYCASIYYGYEGTYFGVWGQGTLVTVSSASTKGPSVFPLAPSSKSTSGGTAALGCLVKDYFPEPVTVSWNSGALTSGVHTFPAVLQSSGLYSLSSVVTVPSSSLGTQTYICNVNHKPSNTKVDKKVEPKSCDKTHTCPPCPAPELLGPSVFLFPPKPKDTLMISRTPEVTCVVVDVSHEDPEVKFNWYVDGVEVHNAKTKPREEQYNSTYRVVSVLTVLHQDWLNGKEYKCKVSNKALPAPIEKTISKAKGQPREPQVYTDPPSREEMTKNQVSLTCEVKGFYPSDIAVEWESNGQPENNYKTTPPVLDSDGSFFLYSKLTVDKSRWQQGNVFSCSVMHEALHNHYTQKSLSLSPGK chain 1: not shown light: EIVLTQSPATLSLSPGERATLSCRASSSVSYMHWYQQKPGQAPRPWIYATSNLASGIPARFSGSRSGTDYTLTISSLEPEDFAVYYCQQWSSNTLTFGGGTKVEIKRTVAAPSVFIFPPSDEQLKSGTASVVCLLNNFYPREAKVQWKVDNALQSGNSQESVTEQDSKDSTYSLSSTLTLSKADYEKHKVYACEVTHQGLSSPVTKSFNRGEC chain 2: DIQMTQSPSSVSASVGDRVTITCRASQGIYSWLAWYQQKPGKAPNLLIYTASTLQSGVPSRFSGSGSGTDFTLTISSLQPEDFATYYCQQANIFPLTFGGGTKVEIKSSASTKGPSVFPLAPSSKSTSGGTAALGCLVKDYFPEPVTVSWNSGALTSGVHTFPAVLQSSGLYSLSSVVTVPSSSLGTQTYICNVNHKPSNTKVDKKVEPKSC | binds | 
Ly1662 (bispecific antibody, Two-chain format; also called anti-B7H3/CD40 bi-specific antibody Ly1662) heavy: not shown light: EIVLTQSPATLSLSPGERATLSCRASSSVSYMHWYQQKPGQAPRPWIYATSNLASGIPARFSGSRSGTDYTLTISSLEPEDFAVYYCQQWSSNTLTFGGGTKVEIKRTVAAPSVFIFPPSDEQLKSGTASVVCLLNNFYPREAKVQWKVDNALQSGNSQESVTEQDSKDSTYSLSSTLTLSKADYEKHKVYACEVTHQGLSSPVTKSFNRGEC | binds | 
Ly1663 (bispecific antibody, Two-chain format; also called anti-B7H3/CD40 bi-specific antibody Ly1663) heavy: QVQLVQSGAEVKKPGASVKVSCKASGYTFTSYVMHWVRQKPGQGLEWIGYINPYNEGTESTDKFKGRATMTSDKSTSTVYMELSSLRSEDTAVYYCASIYYGYEGTYFGVWGQGTLVTVSSASTKGPSVFPLAPSSKSTSGGTAALGCLVKDYFPEPVTVSWNSGALTSGVHTFPAVLQSSGLYSLSSVVTVPSSSLGTQTYICNVNHKPSNTKVDKKVEPKSCDKTHTCPPCPAPELLGPSVFLFPPKPKDTLMISRTPEVTCVVVDVSHEDPEVKFNWYVDGVEVHNAKTKPREEQYNSTYRVVSVLTVLHQDWLNGKEYKCKVSNKALPAPIEKTISKAKGQPREPQVYTLPPSREEMTKNQVSLTCLVKGFYPSDIAVEWESNGQPENNYKTTPPVLDSDGSFFLYSKLTVDKSRWQQGNVFSCSVMHEALHNHYTQKSLSLSPGK light: not shown | binds | 
Ly1579 (bispecific antibody, Two-chain format; also called anti-B7H3/CD40 bi-specific antibody Ly1579) heavy: not shown light: EIVLTQSPATLSLSPGERATLSCRASSSVSSSYLHWYQQKPGQAPRLLIYSTSNLASGIPARFSGSGSGTDFTLTISSLEPEDFAVYYCQHYSGYPLTFGGGTKVEIKRTVAAPSVFIFPPSDEQLKSGTASVVCLLNNFYPREAKVQWKVDNALQSGNSQESVTEQDSKDSTYSLSSTLTLSKADYEKHKVYACEVTHQGLSSPVTKSFNRGEC |  | binding result [3]: binds
Ly1426 (antibody, human IgG1, kappa, V domains shown, also called Ly383_VH-1/Ly383_VL-1; grafted humanized antibody of Ly383) VH: QVQLVQSGAEVKKPGASVKVSCKASGYTFTSYVMHWVRQAPGQGLEWMGYINPYNDGTECTDKFKGRVTMTRDTSTSTVYMELSSLRSEDTAVYYCARIYYGYDGTYFGVWGQGTLVTVSS VL: EIVLTQSPATLSLSPGERATLSCRASSSVSYMHWYQQKPGQAPRLLIYATSNLASGIPARFSGSGSGTDFTLTISSLEPEDFAVYYCQQWSSNTLTFGGGTKVEIKR |  | binding result [4]: no binding
